Source: US20200317768A1 (published 2020)
Numbering of substitutions follows the chain as printed.

T1: cynomolgus monkey FcγRIIa3 extracellular domain, C-terminal His-tag (cynomolgus monkey)
T1 construct: also called cyno FcγRIIa3; cynoFcgRIIa3
T1 chain: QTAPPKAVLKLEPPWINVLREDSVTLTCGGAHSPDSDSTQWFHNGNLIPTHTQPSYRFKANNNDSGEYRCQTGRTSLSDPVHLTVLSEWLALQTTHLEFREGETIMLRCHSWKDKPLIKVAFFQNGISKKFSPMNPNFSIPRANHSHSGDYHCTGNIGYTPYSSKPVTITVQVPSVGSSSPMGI

T2: human FcγRIIaR extracellular domain, C-terminal His-tag (human, UniProt P12318 34-217)
T2 construct: also called human FcγRIIa (type R); FcgRIIaR
T2 chain: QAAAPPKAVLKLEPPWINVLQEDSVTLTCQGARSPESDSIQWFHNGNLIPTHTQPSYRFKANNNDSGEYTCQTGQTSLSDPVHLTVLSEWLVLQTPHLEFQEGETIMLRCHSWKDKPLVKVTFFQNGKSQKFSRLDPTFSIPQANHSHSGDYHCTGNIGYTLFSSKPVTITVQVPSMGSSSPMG

T3: cynomolgus monkey FcγRIIa2 extracellular domain, C-terminal His-tag (cynomolgus monkey)
T3 construct: also called cyno FcγRIIa2; cynoFcgRIIa2
T3 chain: T1 chain with I127K, K130N, P133H, R142Q

T4: cynomolgus monkey FcγRIIIaS extracellular domain, C-terminal His-tag (cynomolgus monkey, UniProt Q8SPW2 21-206 at identity 1.00))
T4 construct: also called cyno FcγRIIIaS; cynoFcγRIIIaS
T4 chain: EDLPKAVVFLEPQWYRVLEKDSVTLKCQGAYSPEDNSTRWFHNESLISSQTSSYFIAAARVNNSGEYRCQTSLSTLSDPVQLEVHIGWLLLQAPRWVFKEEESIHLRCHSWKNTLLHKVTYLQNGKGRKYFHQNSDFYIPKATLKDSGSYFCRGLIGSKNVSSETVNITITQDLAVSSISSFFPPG

T5: cynomolgus monkey FcγRIIb extracellular domain, C-terminal His-tag (cynomolgus monkey)
T5 construct: also called cyno FcγRIIb; cynoFcγRIIb
T5 chain: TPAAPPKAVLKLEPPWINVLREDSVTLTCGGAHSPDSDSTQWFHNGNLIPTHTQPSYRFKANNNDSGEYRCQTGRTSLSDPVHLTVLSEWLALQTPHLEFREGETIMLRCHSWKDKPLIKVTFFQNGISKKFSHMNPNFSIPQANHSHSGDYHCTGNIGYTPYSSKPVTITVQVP

T6: human FcγRIIaH extracellular domain, C-terminal His-tag (human, UniProt P12318 34-217)
T6 construct: also called human FcγRIIa (type H); FcgRIIaH
T6 sequence: T2 chain with R134H

T7: cynomolgus monkey FcγRIIa1 extracellular domain, C-terminal His-tag (cynomolgus monkey)
T7 construct: also called cyno FcγRIIa1; cynoFcgRIIa1
T7 chain: T1 chain with T95P, A121T, S128A, P133H, N135D

T8: human FcγRIIb extracellular domain, C-terminal His-tag (human, UniProt P31994 43-217)
T8 construct: also called human FcgRIIb; FcgRIIb
T8 sequence: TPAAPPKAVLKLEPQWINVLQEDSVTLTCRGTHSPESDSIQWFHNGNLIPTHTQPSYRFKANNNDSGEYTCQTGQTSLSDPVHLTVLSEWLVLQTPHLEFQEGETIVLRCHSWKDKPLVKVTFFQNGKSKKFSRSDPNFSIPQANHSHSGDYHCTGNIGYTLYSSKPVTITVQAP

B1: M103205H795-MY202/M103202L889-SK1 (antibody, human IgG1, kappa)
heavy: QVTLKESGPVLVKPTETLTLTCTVSGIDLSHDDISWVRQAPGKGLEWVGIISYAGSTYYASWAKGRLTISKDTSKNQVVLTMTNMDPVDTATYYCARGVPAYSHGGDLWGQGTLVTVSSASTKGPSVFPLAPSSKSTSGGTAALGCLVKDYFPEPVTVSWNSGALTSGVHTFPAVLQSSGLYSLSSVVTVPSSSLGTQTYICNVNHKPSNTKVDKKVEPKSCDKTHTCPPCPAPELLNGPVVFLFPPKPKDTLMISRTPEVTCVVVDVSDEDPEVKFNWYVDGVEVHNAKTKPREEQYNSTYRVVSVLTVLHQDWLNGKEYKCKVSNKALPKPIEKTISKAKGQPREPQVYTLPPSREEMTKNQVSLTCLVKGFYPSDIAVEWESNGQPENNYKTTPPVLDSDGSFFLYSKLTVDKSRWQQGNVFSCSVMHEALHNHYTQKSLSLSP
light: DIVMTQSPATLSLSPGERATLSCTSSQSVYHANWLSWFQQKPGQPPKLLIYWASTLAYGVPSRFSGSGSGTDFTLTISSLQPEDAATYYCAGGYGGGRYAFGQGTKVEIKRTVAAPSVFIFPPSDEQLKSGTASVVCLLNNFYPREAKVQWKVDNALQSGNSQESVTEQDSKDSTYSLSSTLTLSKADYEKHKVYACEVTHQGLSSPVTKSFNRGEC
notes: Substitutions introduced into M103205H795-SG1; expressed with M103202L889-SK1 as light chain
B2: M103205H795-MY208/M103202L889-SK1 (antibody, human IgG1, kappa)
heavy: B1 heavy with V241S, Q297L, K332A
light: B1 light
notes: as for B1
B3: M103205H795-MY211/M103202L889-SK1 (antibody, human IgG1, kappa)
heavy: B1 heavy with K328T
light: B1 light
notes: as for B1
B4: M103205H795-MY212/M103202L889-SK1 (antibody, human IgG1, kappa)
heavy: B1 heavy with Q297L, K328T
light: B1 light
notes: as for B1
B5: M103205H795-MY209/M103202L889-SK1 (antibody, human IgG1, kappa)
heavy: B1 heavy with V241S, Q297L, K328T
light: B1 light
notes: as for B1
B6: M103205H795-MY207/M103202L889-SK1 (antibody, human IgG1, kappa)
heavy: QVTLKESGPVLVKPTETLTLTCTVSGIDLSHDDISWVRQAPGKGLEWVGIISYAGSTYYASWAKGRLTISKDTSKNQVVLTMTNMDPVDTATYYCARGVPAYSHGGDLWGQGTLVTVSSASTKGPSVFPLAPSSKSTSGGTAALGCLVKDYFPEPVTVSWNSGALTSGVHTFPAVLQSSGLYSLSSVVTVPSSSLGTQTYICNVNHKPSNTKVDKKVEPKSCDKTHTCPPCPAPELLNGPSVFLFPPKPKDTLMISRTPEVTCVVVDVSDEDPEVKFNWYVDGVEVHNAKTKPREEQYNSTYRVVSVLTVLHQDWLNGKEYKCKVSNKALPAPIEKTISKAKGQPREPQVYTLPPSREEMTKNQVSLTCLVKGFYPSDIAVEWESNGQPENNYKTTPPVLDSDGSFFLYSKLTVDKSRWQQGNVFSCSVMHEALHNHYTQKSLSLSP
light: B1 light
notes: as for B1
B7: M103205H795-MY206/M103202L889-SK1 (antibody, human IgG1, kappa)
heavy: B1 heavy with Q297L
light: B1 light
notes: as for B1
B8: M103205H795-MY204/M103202L889-SK1 (antibody, human IgG1, kappa)
heavy: B1 heavy with D270E, Q297L
light: B1 light
notes: as for B1
B9: M103205H795-MY210/M103202L889-SK1 (antibody, human IgG1, kappa)
heavy: B1 heavy with V241S, K328T
light: B1 light
notes: as for B1
B10: M103205H795-MY205/M103202L889-SK1 (antibody, human IgG1, kappa)
heavy: B1 heavy with V241S, Q297L
light: B1 light
notes: also called MS1032LO06-MY205

Target: T1, cynomolgus monkey FcγRIIa3 …
Test: SPR (Biacore), antibody captured, FcgR analyte
Protocol: (§1) The kinetic analysis of interactions between these antibodies and FcγR was carried out using BIACORE® T200 or BIACORE® 4000 (GE Healthcare). HBS-EP+ (GE Healthcare) was used as the running buffer, and the measurement temperature was set to 25° C. A chip produced by immobilizing Protein A. Protein A/G or mouse anti-human IgG kappa light chain (BD Biosciences) onto a Series S Sensor Chip CM4 or CM5 (GE Healthcare) by the amine-coupling method was used. […] After the measurement, the antibody captured on the chip was washed off by allowing reaction with 10 mM glycine-HCl, pH1.5 and 25 mM NaOH so that the chip was regenerated and used repeatedly. The sensorgrams obtained as measurement results were analyzed by the 1:1 Langmuir binding model using the BIACORE® Evaluation Software to calculate the binding rate constant ka (L/mol/s) and dissociation rate constant kd (l/s), and the dissociation constant KD (mol/L) was calculated from these values. […] Regarding such interactions, KD values were calculated using the following 1:1 binding model described in BIACORE® T100 Software Handbook BR1006-48 Edition AE.
(§2) The behavior of interacting molecules according to the 1:1 binding model on BIACORE® can be described by Equation 1: Req=C·R max/(KD+C)+RI, wherein, Req is a plot of steady-state binding levels to analyte concentration. C is concentration, RI is bulk refractive index contribution in the sample, and Rmax is analyte binding capacity of the surface. When this equation is rearranged, KD can be expressed as Equation 2: KD=C·Rmax/(Req−RI)−C. KD can be calculated by substituting the values of Rmax, RI, and C into Equation 1 or Equation 2. From the current measurement conditions, RI=0, C=2 μmol/L can be used.

| Binder | Kd [nM] |
| --- | --- |
| B1 | 22000 |
| B2 | 5700 |
| B3 | 2700 |
| B4 | 29000 |
| B5 | 19000 |
| B6 | 69000 |
| B7 | 5000 |
| B8 | 5200 |
| B9 | 23000 |
| B10 | 30000 |

Target: T2, human FcγRIIaR extracellular domain, …
Test: SPR (Biacore), antibody captured, FcgR analyte
Protocol: as §1, §2

| Binder | Kd [nM] |
| --- | --- |
| B1 | 1200 |
| B2 | 21000 |
| B3 | 13000 |
| B4 | 1300 |
| B5 | 680 |
| B6 | 2800 |
| B7 | 1400 |
| B8 | 2800 |
| B9 | 14 |
| B10 | 1300 |

Target: T3, cynomolgus monkey FcγRIIa2 …
Test: SPR (Biacore), antibody captured, FcgR analyte
Protocol: as §1, §2

| Binder | Kd [nM] |
| --- | --- |
| B1 | 640 |
| B2 | 1500 |
| B3 | 530 |
| B4 | 530 |
| B5 | 690 |
| B6 | 1400 |
| B7 | 790 |
| B8 | 1400 |
| B9 | 840 |
| B10 | 1100 |

Target: T4, cynomolgus monkey FcγRIIIaS …
Test: SPR (Biacore), antibody captured, FcgR analyte
Protocol: as §1, §2

| Binder | Kd [nM] |
| --- | --- |
| B1 | 4000 |
| B2 | 2800 |
| B3 | 5000 |
| B4 | 2600 |
| B5 | 2200 |
| B6 | 4100 |
| B7 | 5300 |
| B8 | 3500 |
| B9 | 2400 |
| B10 | 6000 |

Target: T5, cynomolgus monkey FcγRIIb extracellular …
Test: SPR (Biacore), antibody captured, FcgR analyte
Protocol: as §1, §2

| Binder | Kd [nM] |
| --- | --- |
| B1 | 460 |
| B2 | 640 |
| B3 | 470 |
| B4 | 370 |
| B5 | 190 |
| B6 | 820 |
| B7 | 450 |
| B8 | 810 |
| B9 | 250 |
| B10 | 250 |

target: T9, human FcγRIIIaV extracellular domain, C-terminal His-tag (human, UniProt P08637 17-208); test: SPR (Biacore), antibody captured, FcgR analyte
T9 construct: also called human FcgRIIIaV; FcgRIIIaV
Protocol: as §1, §2

T9 sequence (P08637 17-208 F176V): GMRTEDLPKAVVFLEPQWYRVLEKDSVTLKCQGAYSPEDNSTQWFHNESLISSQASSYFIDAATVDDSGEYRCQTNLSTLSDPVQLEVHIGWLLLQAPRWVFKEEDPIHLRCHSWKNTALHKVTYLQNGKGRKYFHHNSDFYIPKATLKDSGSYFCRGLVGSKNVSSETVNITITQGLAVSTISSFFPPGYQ

| Binder | Kd [nM] |
| --- | --- |
| B1 | 9400 |
| B2 | 10000 |
| B3 | 4800 |
| B4 | 6500 |
| B5 | 14000 |
| B6 | 8000 |
| B7 | 8200 |
| B8 | 13000 |
| B9 | 51000 |
| B10 | 15000 |

target: T6, human FcγRIIaH extracellular domain, …; test: SPR (Biacore), antibody captured, FcgR analyte
Protocol: as §1, §2

| Binder | Kd [nM] |
| --- | --- |
| B1 | 12000 |
| B2 | 530 |
| B3 | 1100 |
| B4 | 800 |
| B5 | 570 |
| B6 | 13000 |
| B7 | 1000 |
| B8 | 1300 |
| B9 | 880 |
| B10 | 470 |

Target: T7, cynomolgus monkey FcγRIIa1 …
Test: SPR (Biacore), antibody captured, FcgR analyte
Protocol: as §1, §2

| Binder | Kd [nM] |
| --- | --- |
| B1 | 860 |
| B2 | 1200 |
| B3 | 750 |
| B4 | 560 |
| B5 | 830 |
| B6 | 1500 |
| B7 | 520 |
| B8 | 1300 |
| B9 | 950 |
| B10 | 900 |

target: T8, human FcγRIIb extracellular domain, …; test: SPR (Biacore), antibody captured, FcgR analyte
Protocol: as §1, §2

| Binder | Kd [nM] |
| --- | --- |
| B1 | 710 |
| B2 | 12000 |
| B3 | 520 |
| B4 | 630 |
| B5 | 500 |
| B6 | 1600 |
| B7 | 800 |
| B8 | 1300 |
| B9 | 980 |
| B10 | 560 |
